Ends that are not written are not given here.
Experiments:
[1] = molecular target: T1, human plasma-derived Factor X zymogen (human, UniProt P00742 41-179; P00742 183-488); test: apparent KD fitted from FXa generation assay
T1 construct: Plasma-derived, bought (Haematologic Technologies); also called FX; human FX
Protocol: The ability of the monovalent anti-FX Nanobody® (Nb) to promote FIXa-mediated FX-activation was determined in the presence of a procoagulant phospholipid membrane according to the principles described by Scheiflinger et al. (2008) J Thromb Haemost, 6:315-322. A Fab of mAb 13F62 (IgG1 isotype, variable sequences identified by SEQ ID NO:6 and 7), also found to bind the activation peptide, were included for comparison. Moreover, anti-FX antibodies as disclosed in U.S. Pat. No. 9,334,331 (J327 and L404-k in said publication), corresponding to the anti-FX arm of ACE910); and more recently in WO2018/021450 (J327 D31H and JYL280 in said publication) and WO2018/098363 (BIIB-12-917 represented by SEQ ID NO:427 and 615 in said publication) are stated to be suitable for use as part of anti-FIX/anti-FX bispecific FVIII mimetic compounds were, furthermore, included for comparison.
Each compound was tested individually in a concentration range from 0-1000 nM, 0-2000 nM, 0-4000 nM or 0-8000 nM by pre-incubation with 1-1.5 nM human plasma-derived FIXa (Haematologic Technologies Inc, USA) and 500 μM 25:75 phosphatidyl serine:phosphatidyl choline phospholipid vesicles (Haematologic Technologies Inc, USA) in assay buffer (50 mM HEPES, 100 mM NaCl, 5 mM CaCl₂, 0.1% (w/v) PEG8000, 1 mg/mL bovine serum albumin, pH 7.3) for 10 minutes. The reaction was initiated by addition of human plasma-derived FX (Haematologic Technologies Inc, USA) to a final concentration of 100 nM and a reaction volume of 50 μL. Following 20 minutes activation at room temperature while agitated (1000 RPM), the reaction was quenched by addition of 25 μL quench buffer (50 mM HEPES, 100 mM NaCl, 60 mM EDTA, 0.1% (w/v) PEG8000, 1 mg/mL bovine serum albumin, pH 7.3). The amount of FXa generated was determined by addition of 25 μL 2 mM S-2765 chromogenic substrate for FXa (Chromogenix, Sweden) and chromogenic substrate conversion was followed by measuring absorbance at 405 nm for 10 minutes in a microplate reader. The observed change in 405 nm absorbance (ΔAbs405/min) was fitted to the quadratic binding equation (eq. 1) to obtain the peak stimulatory activity and EC50.

[2] = molecular target: T2, FX activation peptide 12-mer AADLDPTENPFD (human); test: peptide ELISA
T2 peptide: AADLDPTENPFD-biotin
Protocol: (§1) The peptides were C-terminally conjugated to biotin and 50 μL of 1 μg/mL peptide solution was used for immobilization in discrete wells of the microtiter plate which was pre-coated with 1 μg/mL streptavidin. Each well was washed with washing buffer (10 mM Tris, 150 mM NaCl, 2.5 mM CaCl₂, 0.05% Tween 20, pH 8.60) followed by addition of 50 μL of 2 μg/mL FLAG-tagged anti-FX Nanobody® or IgG antibody to be tested. After 1 hour non-bound Nanobody®/antibody was washed off using washing buffer.
(§2) Bound anti-FX activation peptide ligand was detected by first binding a HRP-labelled secondary antibody (for FLAG-tagged Nanobodies: Anti-FLAG mAb M2-Peroxidase (HRP) (Sigma Aldrich, US), for antibody: Fcγ Fragment Specific Peroxidase AffiniPure F(ab′)₂ Fragment Goat Anti-Human IgG (Jackson ImmunoResearch Laboratories, Inc., US), or Peroxidase AffiniPure Goat Anti-Mouse IgG (Jackson ImmunoResearch Laboratories, Inc., US)) for 1 hour, and then adding 100 μL TMB-1 ELISA substrate (Kem-En-Tec Diagnostics, Denmark).

[3] = molecular target: T3, FX activation peptide 12-mer ADLDPTENPFDL (human); test: peptide ELISA
T3 peptide: ADLDPTENPFDL-biotin
Protocol: as §1, §2

[4] = molecular target: T4, FX activation peptide 12-mer SSSGEAPDSITW (human); test: peptide ELISA
T4 peptide: SSSGEAPDSITW-biotin
Protocol: as §1, §2

[5] = molecular target: T5, FX activation peptide 12-mer QTQPERGDNNLT (human); test: peptide ELISA
T5 peptide: QTQPERGDNNLT-biotin
Protocol: as §1, §2

[6] = molecular target: T6, FX activation peptide 12-mer TQPERGDNNLTR (human); test: peptide ELISA
T6 peptide: TQPERGDNNLTR-biotin
Protocol: as §1, §2

[7] = molecular target: T7, FX activation peptide 12-mer AQATSSSGEAPD (human); test: peptide ELISA
T7 peptide: AQATSSSGEAPD-biotin
Protocol: as §1, §2

[8] = molecular target: T8, FX activation peptide 12-mer QATSSSGEAPDS (human); test: peptide ELISA
T8 peptide: QATSSSGEAPDS-biotin
Protocol: as §1, §2

[9] = molecular target: T9, FX activation peptide 12-mer LDFNQTQPERGD (human); test: peptide ELISA
T9 peptide: LDFNQTQPERGD-biotin
Protocol: as §1, §2

[10] = molecular target: T10, FX activation peptide 12-mer KPYDAADLDPTE (human); test: peptide ELISA
T10 peptide: KPYDAADLDPTE-biotin
Protocol: as §1, §2

[11] = molecular target: T11, FX activation peptide 12-mer WKPYDAADLDPT (human); test: peptide ELISA
T11 peptide: WKPYDAADLDPT-biotin
Protocol: as §1, §2

[12] = molecular target: human activated Factor X (human, UniProt P00742 41-179; P00742 235-488); test: cell-based or functional assay
Sequence of human activated Factor X (P00742 41-179, chain 1 of 2): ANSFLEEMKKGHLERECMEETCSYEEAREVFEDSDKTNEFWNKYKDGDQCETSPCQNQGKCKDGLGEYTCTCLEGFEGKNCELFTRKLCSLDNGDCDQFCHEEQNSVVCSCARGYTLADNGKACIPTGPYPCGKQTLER
Sequence of human activated Factor X (P00742 235-488, chain 2 of 2): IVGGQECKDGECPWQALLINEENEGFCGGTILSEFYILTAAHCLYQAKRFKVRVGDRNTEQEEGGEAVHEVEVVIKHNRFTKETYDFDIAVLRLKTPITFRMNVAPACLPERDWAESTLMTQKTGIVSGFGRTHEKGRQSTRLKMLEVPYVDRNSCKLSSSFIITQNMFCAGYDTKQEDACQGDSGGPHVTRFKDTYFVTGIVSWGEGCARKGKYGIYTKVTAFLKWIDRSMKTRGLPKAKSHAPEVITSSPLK

[13] = molecular target: T1, human plasma-derived Factor X zymogen; test: cell-based or functional assay
[14] = molecular target: T12, FX activation peptide 12-mer PFDLLDFNQTQP (human); test: peptide ELISA
T12 peptide: PFDLLDFNQTQP-biotin
Protocol: as §1, §2

[15] = molecular target: T13, FX activation peptide 12-mer NPFDLLDFNQTQ (human); test: peptide ELISA
T13 peptide: NPFDLLDFNQTQ-biotin
Protocol: as §1, §2

[16] = molecular target: T14, FX activation peptide 12-mer FDLLDFNQTQPE (human); test: peptide ELISA
T14 peptide: FDLLDFNQTQPE-biotin
Protocol: as §1, §2

[17] = molecular target: T15, FX activation peptide 12-mer SSGEAPDSITWK (human); test: peptide ELISA
T15 peptide: SSGEAPDSITWK-biotin
Protocol: as §1, §2

[18] = molecular target: T16, FX activation peptide 12-mer ITWKPYDAADLD (human); test: peptide ELISA
T16 peptide: ITWKPYDAADLD-biotin
Protocol: as §1, §2

[19] = molecular target: T17, FX activation peptide 12-mer DFNQTQPERGDN (human); test: peptide ELISA
T17 peptide: DFNQTQPERGDN-biotin
Protocol: as §1, §2

[20] = molecular target: T18, FX activation peptide 12-mer DLLDFNQTQPER (human); test: peptide ELISA
T18 peptide: DLLDFNQTQPER-biotin
Protocol: as §1, §2

[21] = molecular target: T19, FX activation peptide 12-mer DSITWKPYDAAD (human); test: peptide ELISA
T19 peptide: DSITWKPYDAAD-biotin
Protocol: as §1, §2

[22] = molecular target: T20, FX activation peptide 12-mer TENPFDLLDFNQ (human); test: peptide ELISA
T20 peptide: TENPFDLLDFNQ-biotin
Protocol: as §1, §2

[23] = molecular target: T21, FX activation peptide 12-mer YDAADLDPTENP (human); test: peptide ELISA
T21 peptide: YDAADLDPTENP-biotin
Protocol: as §1, §2

[24] = molecular target: T22, FX activation peptide 12-mer SITWKPYDAADL (human); test: peptide ELISA
T22 peptide: SITWKPYDAADL-biotin
Protocol: as §1, §2

[25] = molecular target: T23, FX activation peptide 12-mer TSSSGEAPDSIT (human); test: peptide ELISA
T23 peptide: TSSSGEAPDSIT-biotin
Protocol: as §1, §2

[26] = molecular target: T24, FX activation peptide 12-mer APDSITWKPYDA (human); test: peptide ELISA
T24 peptide: APDSITWKPYDA-biotin
Protocol: as §1, §2

[27] = molecular target: T25, FX activation peptide 12-mer DPTENPFDLLDF (human); test: peptide ELISA
T25 peptide: DPTENPFDLLDF-biotin
Protocol: as §1, §2

[28] = molecular target: T26, FX activation peptide 12-mer DLDPTENPFDLL (human); test: peptide ELISA
T26 peptide: DLDPTENPFDLL-biotin
Protocol: as §1, §2

[29] = molecular target: T27, FX activation peptide 12-mer ATSSSGEAPDSI (human); test: peptide ELISA
T27 peptide: ATSSSGEAPDSI-biotin
Protocol: as §1, §2

[30] = molecular target: T28, FX activation peptide 12-mer ENPFDLLDFNQT (human); test: peptide ELISA
T28 peptide: ENPFDLLDFNQT-biotin
Protocol: as §1, §2

[31] = molecular target: T29, FX activation peptide 12-mer FNQTQPERGDNN (human); test: peptide ELISA
T29 peptide: FNQTQPERGDNN-biotin
Protocol: as §1, §2

[32] = molecular target: T30, FX activation peptide 12-mer SGEAPDSITWKP (human); test: peptide ELISA
T30 peptide: SGEAPDSITWKP-biotin
Protocol: as §1, §2

[33] = molecular target: T31, FX activation peptide 12-mer GEAPDSITWKPY (human); test: peptide ELISA
T31 peptide: GEAPDSITWKPY-biotin
Protocol: as §1, §2

[34] = molecular target: T32, FX activation peptide 12-mer EAPDSITWKPYD (human); test: peptide ELISA
T32 peptide: EAPDSITWKPYD-biotin
Protocol: as §1, §2

[35] = molecular target: T33, FX activation peptide 12-mer TWKPYDAADLDP (human); test: peptide ELISA
T33 peptide: TWKPYDAADLDP-biotin
Protocol: as §1, §2

[36] = molecular target: T34, FX activation peptide 12-mer PYDAADLDPTEN (human); test: peptide ELISA
T34 peptide: PYDAADLDPTEN-biotin
Protocol: as §1, §2

[37] = molecular target: T35, FX activation peptide 12-mer LDPTENPFDLLD (human); test: peptide ELISA
T35 peptide: LDPTENPFDLLD-biotin
Protocol: as §1, §2

[38] = molecular target: T36, FX activation peptide 12-mer DAADLDPTENPF (human); test: peptide ELISA
T36 peptide: DAADLDPTENPF-biotin
Protocol: as §1, §2

[39] = molecular target: T37, FX activation peptide 12-mer LLDFNQTQPERG (human); test: peptide ELISA
T37 peptide: LLDFNQTQPERG-biotin
Protocol: as §1, §2

[40] = molecular target: T38, FX activation peptide 12-mer PDSITWKPYDAA (human); test: peptide ELISA
T38 peptide: PDSITWKPYDAA-biotin
Protocol: as §1, §2

[41] = molecular target: T39, FX activation peptide 12-mer PTENPFDLLDFN (human); test: peptide ELISA
T39 peptide: PTENPFDLLDFN-biotin
Protocol: as §1, §2

T1 sequence (P00742 41-179, chain 1 of 2): as the sequence (P00742 41-179, chain 1 of 2) above
T1 sequence (P00742 183-488, chain 2 of 2): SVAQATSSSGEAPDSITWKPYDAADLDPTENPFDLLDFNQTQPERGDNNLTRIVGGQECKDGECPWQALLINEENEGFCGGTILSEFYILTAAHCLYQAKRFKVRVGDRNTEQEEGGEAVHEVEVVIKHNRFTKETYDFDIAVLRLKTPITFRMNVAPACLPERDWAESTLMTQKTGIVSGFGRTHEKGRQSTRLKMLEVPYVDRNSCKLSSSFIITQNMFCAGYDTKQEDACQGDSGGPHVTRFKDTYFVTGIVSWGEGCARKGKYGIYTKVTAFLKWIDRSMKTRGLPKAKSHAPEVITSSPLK

B1: Nb 721E08 (VHH)
VHH: EVQLVESGGGVVQPGGSLRLSCAASGRTFSTYSMGWFRQAPGKEREFVAAITRRGSRTYYADSVKGRFTISRDNSKNTVYLQMNSLRPEDTALYYCAADRRPADSYLDYWGQGTLVTVSS
notes: monovalent Nanobody; not shown: C-terminal FLAG3 and HIS6 tag
Kd [1]: ~1700 nM
ELISA signal relative to background [2]: 2.22
ELISA signal relative to background [3]: 2.34
ELISA signal relative to background [4]: 1.99
ELISA signal relative to background [5]: 1.96
ELISA signal relative to background [6]: 1.97
ELISA signal relative to background [7]: 1.92
ELISA signal relative to background [8]: 1.97
ELISA signal relative to background [9]: 2.21
ELISA signal relative to background [10]: 1.89
ELISA signal relative to background [11]: 1.83
FXa amidolytic activity (relative to free FXa, fold) [12]: 1.07 fold
Increase in FX activation (fold) [13]: > 25 fold

B2: Fab of mAb 13F62 (Fab, V domains shown)
VH: EVQLVESGGGQVKPGGSLRLSCAASGFTFSTSSIYWVRQAPGKGLEWVSSISSGSSYIFYADSVKGRFTISRDNAKNSLFLQMNSLRAEDTAVYYCVSGYSRLLDYWGQGTLVTVSS
VL: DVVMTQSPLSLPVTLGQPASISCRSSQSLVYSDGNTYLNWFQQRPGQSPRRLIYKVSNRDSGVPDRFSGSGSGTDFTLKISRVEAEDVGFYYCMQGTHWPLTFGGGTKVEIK
notes: Fab of an IgG1 antibody; also called Fab of 13F62
Kd [1]: 3.1 nM
Increase in FX activation (fold) [13]: 1.5 fold

B3: mAb 13F62 (antibody, V domains shown)
VH: B2 VH
VL: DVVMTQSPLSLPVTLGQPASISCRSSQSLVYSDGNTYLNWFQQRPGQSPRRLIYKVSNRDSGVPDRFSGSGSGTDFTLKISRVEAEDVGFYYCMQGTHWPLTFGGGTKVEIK
notes: IgG1 isotype
ELISA signal relative to background [14]: 29.7
ELISA signal relative to background [2]: 0.77
ELISA signal relative to background [15]: 28.6
ELISA signal relative to background [3]: 1.25
ELISA signal relative to background [4]: 0.77
ELISA signal relative to background [16]: 30.6
ELISA signal relative to background [17]: 0.73
ELISA signal relative to background [18]: 4.23
ELISA signal relative to background [5]: 1.95
ELISA signal relative to background [6]: 8.86
ELISA signal relative to background [7]: 1.89
ELISA signal relative to background [19]: 1.23
ELISA signal relative to background [20]: 0.82
ELISA signal relative to background [21]: 3.61
ELISA signal relative to background [22]: 29.7
ELISA signal relative to background [23]: 0.84
ELISA signal relative to background [8]: 1.82
ELISA signal relative to background [24]: 7.95
ELISA signal relative to background [9]: 0.8
ELISA signal relative to background [25]: 0.68
ELISA signal relative to background [10]: 0.77
ELISA signal relative to background [26]: 1.59
ELISA signal relative to background [27]: 29.8
ELISA signal relative to background [28]: 26.4
ELISA signal relative to background [29]: 3.2
ELISA signal relative to background [30]: 28.7
ELISA signal relative to background [31]: 1.77
ELISA signal relative to background [32]: 0.82
ELISA signal relative to background [33]: 1.5
ELISA signal relative to background [34]: 1.64
ELISA signal relative to background [35]: 1.95
ELISA signal relative to background [11]: 1.18
ELISA signal relative to background [36]: 0.84
ELISA signal relative to background [37]: 31
ELISA signal relative to background [38]: 0.77
ELISA signal relative to background [39]: 0.86
ELISA signal relative to background [40]: 1.89
ELISA signal relative to background [41]: 30.1
FXa amidolytic activity (relative to free FXa, fold) [12]: 0.94 fold

Source: patent US20210054097A1 (Novo Nordisk, published 2021)
